Experimental data as given in PMC12511343, “Structural insights into Cir-mediated killing by the antimicrobial protein Microcin V” (Communications Biology, 2025).
Where a chain is given by its changes, count along the chain named.

T1: Cir TonB Box mutant M33C/V35P (in 4-Met Cir) (E. coli, UniProt P17315 26-663, W338 mutated to methionine | L343 mutated to methionine | F589 mutated to …)
T1 sequence: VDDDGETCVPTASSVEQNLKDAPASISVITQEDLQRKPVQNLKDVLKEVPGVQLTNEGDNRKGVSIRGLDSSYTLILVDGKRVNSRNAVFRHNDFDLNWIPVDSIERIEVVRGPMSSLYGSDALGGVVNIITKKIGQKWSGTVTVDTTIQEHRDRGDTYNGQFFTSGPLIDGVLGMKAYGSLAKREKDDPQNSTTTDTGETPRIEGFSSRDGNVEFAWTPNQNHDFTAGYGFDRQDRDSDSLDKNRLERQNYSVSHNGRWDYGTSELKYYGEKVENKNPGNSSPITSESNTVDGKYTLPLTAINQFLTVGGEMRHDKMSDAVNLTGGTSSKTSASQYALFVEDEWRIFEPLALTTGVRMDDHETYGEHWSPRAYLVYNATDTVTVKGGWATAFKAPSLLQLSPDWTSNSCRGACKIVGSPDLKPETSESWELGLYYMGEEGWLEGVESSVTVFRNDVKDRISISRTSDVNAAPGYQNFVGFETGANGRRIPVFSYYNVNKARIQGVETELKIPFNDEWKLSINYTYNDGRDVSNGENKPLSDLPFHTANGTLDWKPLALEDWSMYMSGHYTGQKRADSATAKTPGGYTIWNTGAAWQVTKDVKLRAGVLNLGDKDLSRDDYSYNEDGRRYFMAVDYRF

T2: Cir C435A (in 4-Met Cir) (E. coli, UniProt P17315 26-663, W338 mutated to methionine | L343 mutated to methionine | F589 mutated to …)
T2 sequence: T1 sequence with C8M, P10V, C410A

T3: Cir R436E/R490E (in 4-Met Cir) (E. coli, UniProt P17315 26-663, W338 mutated to methionine | L343 mutated to methionine | F589 mutated to …)
T3 sequence: T1 sequence with C8M, P10V, R411E, R465E

T4: 4-Met substituted E. coli Cir (colicin Ia receptor), the paper's wildtype (WT) Cir (E. coli, UniProt P17315 26-663, W338 mutated to methionine | L343 mutated to methionine | F589 mutated to …)
T4 construct: Cir (colicin Ia receptor, TonB-dependent transporter), E. coli, mature coding region of cirA with four residues changed to methionine (4-Met); No TEV cleavage of Cir is described; also called apo-Cir; His-tagged Cir; not shown: His10, N-terminal, kept
T4 sequence (looked up): T1 sequence with C8M, P10V

B1: 4-Met substituted E. coli Cir (colicin Ia receptor), the paper's wildtype (WT) Cir (receptor)
chain: T1 sequence with C8M, P10V
B2: Microcin V (MccV), mature, wildtype (natural protein, E. coli, UniProt P22522 16-103, looked up)
chain: ASGRDIAMAIGTLSGQFVAGGIGAAAGGVAGGAIYDYASTHKPNPAMSPSGLGGTIKQKPEGIPSEAWNYAAGRLCNWSPNNLSDVCL
modifications: biotinylated (EZ-Link Sulfo-NHS-LC kit) for BLI and ELISA; not labelled for cryo-EM and SV-AUC
notes: Only residues 57-88 (mature numbering) were resolved in the map; also called WT MccV; Colicin V; source: E. coli BL21 (DE3), purified (HisTrap as His6-MBP fusion, TEV cleavage, second nickel column, flowthrough); not shown: His6, N-terminal, cleaved; MBP, N-terminal, cleaved

Columns and labels:
[1] = biological target: D85A and D85R (MccV mutants, as a group); experiment: BLI; biotinylated MccV (100 nM) loaded on streptavidin SA-XT sensors, Cir in twofold dilutions 5 uM to 78 nM in PBS-T; 300 s association, 240 s dissociation; first 30 s of association and dissociation fit to a 1:1 global model
[2] = biological target: T1, Cir TonB Box mutant M33C/V35P (in 4-Met …); experiment: BLI
Cir C435A (in 4-Met Cir) = biological target: T2, Cir C435A (in 4-Met Cir); experiment: BLI
[3] = biological target: T3, Cir R436E/R490E (in 4-Met Cir); experiment: BLI
[4] = biological target: T4, 4-Met substituted E. coli Cir (colicin …); experiment: BLI + AUC; stoichiometry reported from the concurrence of BLI (1:1 model) and SV-AUC (single-site model); settings: both partners purified
[5] = biological target: T4, 4-Met substituted E. coli Cir (colicin …); experiment: AUC; sedimentation velocity, NAPol-solubilised Cir and its mixtures with MccV in phosphate-buffered saline, 50,000 rpm, 20 C; single-site model; settings: both partners purified
[6] = biological target: T4, 4-Met substituted E. coli Cir (colicin …); experiment: BLI; biotinylated MccV (100 nM) on streptavidin sensors, WT Cir 5 uM to 78 nM in PBS-T; steady state equilibrium, 1:1 binding model; incomplete equilibrium during the association phase; settings: both partners purified
[7] = biological target: T4, 4-Met substituted E. coli Cir (colicin …); experiment: BLI; biotinylated MccV (100 nM) loaded on streptavidin SA-XT sensors, Cir in twofold dilutions 5 uM to 78 nM in PBS-T; 300 s association, 240 s dissociation; first 30 s of association and dissociation fit to a 1:1 global model; settings: both partners purified

Binder	percent reduction in response shift relative to WT at 5 μM probe [1]	Kd [2]	Kd (Cir C435A (in 4-Met Cir))	Kd [3]	stoichiometry N [4]	Kd [5]	Kd [6]	Kd [7]
B1	40 to 45%							
B2		374 nM	552 nM	1580 nM	1	600 ± 200 nM	1700 ± 1200 nM	155 ± 30 nM
